In PMC8359183, “The periplasmic domains of Vibriocholerae ToxR and ToxS are forming a strong heterodimeric complex independent on the redox state of ToxR cysteines” (Molecular Microbiology, 2021):

Assays:
[1] = target: T1, ToxSp H10_S11insC labelled with 5-iodoacetamidofluorescein (Vibrio cholerae); assay: fluorescence polarisation; settings: both partners purified
T1 construct: also called FITC ToxSp H10_S11insC
T1 chain: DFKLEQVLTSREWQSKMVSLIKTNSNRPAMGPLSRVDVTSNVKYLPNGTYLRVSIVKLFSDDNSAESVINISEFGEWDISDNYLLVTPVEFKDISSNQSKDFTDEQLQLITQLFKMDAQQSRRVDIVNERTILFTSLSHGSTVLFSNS

[2] = target: T2, periplasmic domain of Vibrio cholerae ToxS (ToxSp) (Vibrio cholerae); assay: SEC-MALS; settings: both partners purified
T2 chain: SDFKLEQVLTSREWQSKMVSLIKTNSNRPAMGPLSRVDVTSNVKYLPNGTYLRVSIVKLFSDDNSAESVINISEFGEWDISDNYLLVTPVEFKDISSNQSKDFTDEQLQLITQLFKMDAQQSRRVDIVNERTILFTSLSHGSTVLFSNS

B1: periplasmic domain of Vibrio cholerae ToxR, oxidized, with an intramolecular disulfide bond (ToxRp-ox) (domain or fragment)
chain: PSQTSFKPLTVVDGVAVNMPNNHPDLSNWLPSIELCVKKYNEKHTGGLKPIEVIATGGQNNQLTLNYIHSPEVSGENITLRIVANPNDAIKVCE
notes: also called pToxR-ox; ToxRp-ox-V.c
For B1, the Kd [1] was 11.6 ± 3.4 nM and the “stoichiometry N” value [2] was 1 ToxRp per ToxSp.
